Data reported in the DeepSol protein solubility set.

Experiment: soluble on expression in E. coli; label from the status in PepcDB or PDB records

MGSDKIHHHHHHMLRSLPVLMYHYISRVHDSIAVHPDQFEDHCRGMAAEGWRGVSLAEAEAFLAEGTPLPERSVLITFDDGFLDNYVHALPILEKYGHCGTVFATAGKLETAAGLRPTLADVWSGRIPAEGLPRVDAPFVKHRLGFDERHDLFLNWDEARHAESTGTLAVAAHSMWHRSVFTSASYEGFYAPQRRGRTFDRVEGDVPWGLPRFKVGPALRERAFLPSAELLHAIRETVPQDKDGAYAFFSDTAATERLMHTVEAFGADGLGRFETDAERTERMYREMRDCKQLLENELGHPVTTFCWPWGAFCDEALAIGRELGFRVFLTTLMGSNPPSAPLAVHRFKAKAKPWSWLRLRLHVYSRPLLANLYARMRL
soluble on expression in E. coli: not soluble

MAHHHHHHMGAVDYEVNETHLTGAQALSDYLLDTWYVHDMPRYGAVSCIDRNVTALLRFADEWRGTNVNVFLYNSSSHHQAGLSLATYYDLFIKSFLGRDSAFMRYEAELFNEPASQSQLGFIFIGAPGGRSAGGLPGRAVGRHGPCGAARGVDCDPARRRALLRCADDAPPGGGGGACEHCGDHGARVRAVCRRQGTPEEQVRQRLRGERAAGVGAARGALCVVHAGGVPRRCAERRRGSAVRVPAAARSRLR
soluble on expression in E. coli: not soluble

MGSSHHHHHHSSGLVPRGSHMLESSGNRDIAQVVTENNKNYLVLYASQTGTAEDYAKKFSKELVAKFNLNVMCADVENYDFESLNDVPVIVSIFISTYGEGDFPDGAVNFEDFICNAEAGALSNLRYNMFGLGNSTYEFFNGAAKKAEKHLSAAGAIRLGKLGEADDGAGTTDEDYMAWKDSILEVLKDELGVEATGEESSIRQYELVVHTDIDAAKVYMGEMGRLKSYENQKPPFDAKNPFLAAVTTNRKLNQGTERHLMHLELDISDSKIRYESGDHVAVYPANDSALVNQLGKILGADLDVVMSLNNLDEESNKKHPFPCPTSYRTALTYYLDITNPPRTNVLYELAQYASEPSEQELLRKMASSSGEGKELYLSWVVEARRHILAILQDCPSLRPPIDHLCELLPRLQARYYSIASSSKVHPNSVHICAVVVEYETKAGRINKGVATNWLRAKEPAGENGGRALVPMFVRKSQFRLPFKATTPVIMVGPGTGVAPFIGFIQERAWLRQQGKEVGETLLYYGCRRSDEDYLYREELAQFHRDGALTQLNVAFSREQSHKVYVQHLLKQDREHLWKLIEGGAHIYVCGDARNMARDVQNTFYDIVAELGAMEHAQAVDYIKKLMTKGRYSLDVWS
soluble on expression in E. coli: soluble

SLESEGRSPIFTHLVTSLKGLWTLRAFGRQPYFETLFHKALNLHTANGGAMFSLIYKKTLKLSSRVLDKISIGQLVSLLSNNLNKFDEGGGGAINKIQDFLQKQEYKTLEYNLTTTEVVMENVTAFWEEGFGELFEKAKQNNNNRKTSNGDDSLFFSNFSLLGTPVLKDINFKIERGQLLAVAGSTGAGKTSLLMMIMGELEPSEGKIKHSGRISFCSQFSWIMPGTIKENIIFGVSYDEYRYRSVIKACQLEEDISKFAEKDNIVLGEGGITLSGGQRARISLARAVYKDADLYLLDSPFGYLDVLTEKEIFESCVCKLMANKTRILVTSKMEHLKKADKILILHEGSSYFYGTFSELQNLQPDFSSKLMG
soluble on expression in E. coli: soluble

MAKKKKKKSFNTTRPTDPPVYPVTVPFLGHIVQFGKNPLEFMQRCKRDLKSGVFTISIGGQRVTIVGDPHEHSRFFSPRNEILSPREVYTIMTPVFGEGVAYAAPYPRMREQLNFLAEELTIAKFQNFVPAIQHEVRKFMAENWKEDEGVINLLEDCGAMIINTACQCLFGEDLRKRLNARHFAQLLSKMESSLIPAAVFMPWLLRLPLPQSARCREARAELQKILGEIIVAREKEEASKDNNTSDLLGGLLKAVYRDGTRMSLHEVCGMIVAAMFAGQHTSTITTSWSMLHLMHPKNKKWLDKLHKEIDEFPAQLNYDNVMDEMPFAERCVRESIRRDPPLLMVMRMVKAEVKVGSYVVPKGDIIACSPLLSHHDEEAFPNPRLWDPERDEKVDGAFIGFGAGVHKCIGQKFALLQVKTILATAFREYDFQLLRDEVPDPDYHTMVVGPTLNQCLVKYTRKKKLPSHHHHHH
soluble on expression in E. coli: soluble

MGSDKIHHHHHHMSQTLLPPGWVEKLCDPYAVLGISVIADDRQIFKRYHTLAKLLHPDRHAKNCNPDQKLATAIFSHLINPAYQQLKHRQKRLIAIAMLRSDARVSEQKPLSSQSAIAQEIMKMSTPEAELFYEEAIACYAEAQYKSLDQFYQVTQQITILNLVYLRLHKPDLFLPQKAVAIIPEVEVNPVELTLTDVKPVLTNYAQRHYQRAIEYVRLGKWVIAVQELRDAIKLEPNNSDYYALLGLVHLKQKFMGMARVYICQALKLNPQNSLALKYAPELKIKLGENTNPKSMAKAVSIAALLSRFTQRKGSQVKC
soluble on expression in E. coli: not soluble

MRRNKRERQELLQQTIQATPFITDEELAGKFGVSIQTIRLDRLELSIPELRERIKNVAEKTLEDEVKSLSLDEVIGEIIDLELDDQAISILEIKQEHVFSRNQIARGHHLFAQANSLAVAVIDDELALTASADIRFTRQVKQGERVVAKAKVTAVEKEKGRTVVEVNSYVGEEIVFSGRFDMYRSKHSLEHHHHHH
soluble on expression in E. coli: soluble

MSLEKKVVKFFTVDNMEKEEAYLNEMAQNGWFFQKYKSFRYHFKQGEPAKYSYAIDFKENEGDEDAYKTLFEDAGWETVFSYPVLNGNWMYFRKAVAPGETEEAIFTDETSLIQLYKNIRKREGHHHHHH
soluble on expression in E. coli: soluble

MAGDPMGRQRGAGLGGGHDEREQTLNQMLVEMDGFSGNDGVIVIAATNRPDVLDPALTRPGRFDRQVVVGLPDVKGREQILKVHMRKVSVAQDVDAMTLARGTPGYSGADLANLVNEAALFAARVNKRTVTMLEFEKAKDKINMGPERRTMIMTDKQKESTAYHEAGHAIVGYLVPEHDPVHKVTIIPRGRALGVTFFLPEGDQISISQKQLESKLSTLYAGRLAEDLIYGEENISTGASNDIKVATNIARNMVTQWGFSEKLGPILYTEDEGEVFLGRSMAKAKHMSDETAHSIDEEVRAIVNRNYARAREILIDNMDILHAMKDALVKYETIEEEQIKQLMNREPVTPPSGWGEPKTQQAAYANSTTNDTKPESAVENTDDFNVAAALEHHHHHH
soluble on expression in E. coli: not soluble

GMIKKEGPGWRIIFDSSRDNFSTLIGGETWAIELDKSEWKILVEVVMELCDQYKLVKEQLMGDEDITLELERRPWLAILNGDQYGWNLRLILSASGLFNRGAEVYWPRHVTNNVVNAMRSMWDSDYL
soluble on expression in E. coli: soluble

MMKNPNDIGFIHDISSLDSLRQKAVKEGKDGEQEALHAAARQFESIFTSMMLKSMREANEGFESNIMNSQNEKFYRQMLDEQMASELSANGSMGLADMIVAQLTAGQGNDKSETAMRDAANSAVEYRRVDPKKAREIEKRLIESGELSRTSHTPAKFDSPESFVNSMKPYAEKAAKALGVEPSLLLAQAALETGWGQKVVQNARGSSNNLFNIKADRSWQGDKVTTQTLEFHDNTPVKETAAFRSYSNYQDSFNDYVRFLNDNPRYETALQQRGDSESFIRGIHRAGYATDPTYADKVLQVKQKIESM
soluble on expression in E. coli: not soluble

MGSDKIHHHHHHMTQNTTLRIGSGSGWWGDRVEPAERSARLGKLDYLCFETMAEATVSAAQVRKRRDPAFGGYDTYLDDRMRAVLPHCIAHGTRIISNQGWIHPLGAARRVAELCKELGLPDVKIAAVTTTDLTSSICELDLTLLESGEHVSTLRETLISAEPYEGVGPIVEALRAGAQIVVTGRVADPSLFLAPMIHHFGWQADDVARLARGSAIGHLLECGAQVTGGYFGDPGYKDVPEPWNLAFPIAEVEADGSAVISKVAGSGGRIDLQTVKEQMFYEVHDPRRYITPDVIVDFSTAVLEQVAPDRVRISGVSGLPRTDTLKVSLGCTEGHIGEDMFFYAGPGCLEKAKLAKRILEERFAMAALRADELRIDFLGVNAVHGAASPEPACEPNEIAVRVAARTRTREEAAKVGREIDSMAVCGLASTGKRVPHQDRTREIIGVWSALVPRALIRSQVQFV
soluble on expression in E. coli: not soluble

ASNIYKIKEENKNEDICFIAGIGDTNGYGWGIAKELSKRNVKIIFGIWPPVYNIFMKNYKNGKFDNDMIIDKDKKMNILDMLPFDASFDTANDIDEETKNNKRYNMLQNYTIEDVANLIHQKYGKINMLVHSLANAKEVQKDLLNTSRKGYLDALSKSSYSLISLCKYFVNIMKPQSSIISLTYHASQKVVPGYGGGMSSAKAALESDTRVLAYHLGRNYNIRINTISAGPLKSRAATAINKLNNTYENNTNQNKNRNSHDVHNIMNNSGEKEEKKNSASQNYTFIDYAIEYSEKYAPLRQKLLSTDIGSVASFLLSRESRAITGQTIYVDNGLNIMFLPDDIYRNENE
soluble on expression in E. coli: soluble

AKDDKVTVLSIERGNKLVYLEKLGLRGDQFYYKIERIRESNGVVYIYHTSYIPEQYINANYPNLEYYSSIYNRFKLDYHIHMNDEHFEEINEIVFPTPEHAASVLGVDEQFPTVLQTKITKLESTGQVLEYSETYKRSDYYK
soluble on expression in E. coli: soluble

MYNSKQFLRTVNWHFVNSCNMSCKYCFVSCCKELPLEESISVLEKLKGHFDRINFVGGEPTVSSKLIPLVKKAKEYGFIVSMVTNGFNLYHKPETFDEILTDFSIIGISIDSLNENTNVLIGRSVKNSVLSRDDYIDLCKKIKLAGCKLKINTVVSRVNLDENFNDFYETVMPDRIKLLQVLRPAGRLKQDYTDFLIEEDDYLEFVQRHHKFSEVICSENNELMLNSYYILNSDACFLDNKSGCISGSLLENDLKSVLKNVYVDENKYRARYA
soluble on expression in E. coli: not soluble

MPILGHNILKIEFEKLQTLGGKIEVSLRPTIRNLRLGEMHLPSGKVKGIEVDVDYIITYSPEVARASIKVRVFYVPRNKEDIDNILDEWEDRKVLPGELVAEVVNFTTSELMPIAMYIAKEMRIPYPVPLPRAVVRGE
soluble on expression in E. coli: soluble

MGSSHHHHHHSSGLVPRGSHMIMIHIKAIHDLTVPLETYMPIWPTNPLLEIKPVGTVARDGYKIETISGSTHSGTHIDAPAHMLENGITIDQIDPIRFIGTGYCIKTIPDGNFVRSTHLIEKWKEEYDGSIILIETGWYKKRGFTREFQYEFPGLTEDAAEFLIERNVKLVGIDTLGIEPYQDSDFHVHKKLLSKGIPFIEDLYGLDDLEEGKPYLVVALPLKMKGASGSMARVMALEMD
soluble on expression in E. coli: soluble

MYSPESMNSNISSPSPPSSSSLNAPSLADAPEVRSDDGEAETSEPSTSVTAVPMEIVSQASTSAPVNQLLASGIDMSSVIKNNAVLQALLASASAGGFGDNAGLTMSKLLTAALANGSTAVAKRDAGSPRTDIPKKTRLKVFSNGFFMTFDKLSSCQKKYFWRCEYKNTCKARMHTDIVTEKILTFIHEHNHSAPIDEEVRLYGLDPTNIERNRVYIVGNVADPNQRRKIRKQVADREAAAKRLVQQQEEEQQKQQSASSIVAARAAYAQAMQNGSIPTSSGVASFLQSTSATAPMTSHSMLLAQMPFLNNIKTEMSNMVKNEQFTPERYTQHMSPNLPLQTATIAPLIIPTENYDSPSYRQPAIKRKATDLTNEEHDLRRDPMFQPTFELARKLRKLWKGEPNRYPRTTTTPTHHFEFFLSKNDGTDEHLYVPMRINLRDEAHLKEALQDFCGQQCIGMLLFGISPKISVMFNQPMLNNWDNNQFFLLDISNPSRWRLMYVDDQAV
soluble on expression in E. coli: not soluble

MAHHHHHHMLYLKEIELGNYYICNLDDYPREYCVVDYDPNKVIKFLCPIVHNEGEEMKTYDSSYCFRYKGIKDRLIISNNEEQIYTTLPGIILENQILYDRYNLGIYLMPLKLEEDMSIVCVCDTKKEYKGITPYIKINIKKSNNLLGADSADQHIKGCDFGNNQGEHQFLTNSQSYEENLVCEIHANPGDIVGINCINYNEGDLQNYEVKLEPSNCFSTVSFSLYTLSFVKMNINNIFPDARYYPESSAFPKDPNFKKFSTTSYLWIPAHVPEDFLFFCSCRYAQGEGVAIYHVGSSAAAVEAV
soluble on expression in E. coli: not soluble

MSLNSFNLEGKVALVTGCKRGIGKAMAVALAQAGVDVIGVSASLESEGSDVAKAVEATGRKFSAYKCDFNSREAIYTFIEQVKAAHPVIDILVNNAGTILRAPAAEHGDSLWDEVINVNLNSQFILSRELGREMVKRGSGKVIFTASLLTFQGGITVPGYAASKGAIGQLTKALANEWAGSGVNVNAIAPGYIATDNTQALRDDPERATSILSRIPQNRWGKPEDFAGPVVFLASEAASYVNGSVMVVDGGWMGREGHHHHHH
soluble on expression in E. coli: not soluble
